# Assay results reported in publication PMC8053102.
# T1: PcnR (plasmid copy number repressor, ProQ/FinO family) (Escherichia coli IncI2 plasmid pHNSHP45, UniProt Q9F577 1-198)
# T1 sequence: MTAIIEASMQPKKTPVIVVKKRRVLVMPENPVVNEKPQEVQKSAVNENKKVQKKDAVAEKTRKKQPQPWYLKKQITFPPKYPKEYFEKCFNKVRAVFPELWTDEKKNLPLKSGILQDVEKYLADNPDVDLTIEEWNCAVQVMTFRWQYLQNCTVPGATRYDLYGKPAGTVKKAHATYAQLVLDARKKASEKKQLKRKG
# Target: T1, PcnR (plasmid copy number repressor, …)
# Experiment: EMSA
binder,measurement,value
"CUGAAGUGGAGUUUAAUUCCAUGAGAAGGAAAUAUCAACUCUUACAG (structured_RNA) [first stem-loop (SL) of repR mRNA, 47 nt]",binding result,binds
